Experiment [1] deals with Flt4 receptor tyrosine kinase (VEGFR-3) expressed on cells (human) (UniProt P35916). The experiment is described as follows: Scatchard analysis with 125I-labelled VEGF-C ΔNΔCHis (cell binding, PAE/VEGFR-3 cells).
Experiment [2] concerns the target T1, recombinant Flt4 extracellular domain with C-terminal 6xHis tag (baculovirus), coupled to Sepharose (human, UniProt P35916 25-775).
T1 construct: extracellular domain; also called Flt4EC; Flt4 EC
T1 sequence: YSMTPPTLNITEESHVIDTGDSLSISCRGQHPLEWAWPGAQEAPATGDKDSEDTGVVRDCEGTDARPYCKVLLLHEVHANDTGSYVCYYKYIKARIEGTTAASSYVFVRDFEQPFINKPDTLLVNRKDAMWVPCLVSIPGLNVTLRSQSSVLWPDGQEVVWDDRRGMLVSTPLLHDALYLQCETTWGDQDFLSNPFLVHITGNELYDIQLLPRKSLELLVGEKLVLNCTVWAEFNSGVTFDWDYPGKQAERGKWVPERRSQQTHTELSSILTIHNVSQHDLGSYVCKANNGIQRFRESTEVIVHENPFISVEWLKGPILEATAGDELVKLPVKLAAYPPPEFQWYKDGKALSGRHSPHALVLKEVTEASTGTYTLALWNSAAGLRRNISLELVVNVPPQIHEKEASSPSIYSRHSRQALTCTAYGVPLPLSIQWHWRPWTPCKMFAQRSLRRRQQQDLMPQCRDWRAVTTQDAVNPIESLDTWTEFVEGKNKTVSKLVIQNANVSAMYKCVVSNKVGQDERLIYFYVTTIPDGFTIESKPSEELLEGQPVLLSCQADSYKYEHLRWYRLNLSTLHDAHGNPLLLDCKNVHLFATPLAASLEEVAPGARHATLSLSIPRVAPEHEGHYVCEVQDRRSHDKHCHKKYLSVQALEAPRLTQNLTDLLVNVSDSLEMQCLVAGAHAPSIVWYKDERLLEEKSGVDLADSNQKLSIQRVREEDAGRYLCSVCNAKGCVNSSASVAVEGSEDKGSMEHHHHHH
The experiment is described as follows: depletion with Flt4EC affinity matrix, read out by VEGFR-2 phosphorylation.

The target of experiment [3] is T2, 32 kD VEGF-C polypeptide (amino acids 32-227 of prepro-VEGF-C) (human, UniProt P49767 32-227).
T2 construct: also called 32 kD form; 31 kD
T2 sequence: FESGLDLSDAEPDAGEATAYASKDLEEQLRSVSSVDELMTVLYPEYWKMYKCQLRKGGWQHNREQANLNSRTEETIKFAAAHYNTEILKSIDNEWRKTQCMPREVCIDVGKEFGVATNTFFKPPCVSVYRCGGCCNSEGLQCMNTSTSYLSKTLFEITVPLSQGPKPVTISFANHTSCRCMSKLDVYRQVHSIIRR
The experiment is described as follows: non-reducing and reducing SDS-PAGE of immunoprecipitates. As to the method:
The immunoprecipitates from each cell culture were subjected to SDS-PAGE under non-denaturing conditions (FIG. 6B). Bands 1-6 were cut out from the gel, soaked for 30 minutes in 1×gel-loading buffer containing 200 mM β-mercaptoethanol, and individually subjected to SDS-PAGE under denaturing conditions (FIGS. 6A and 6C, lanes 1-6).

The values that follow come from patent US20030091567A1 (published 2003).

For the molecule “VEGF-C ΔNΔCHis (from UniProt P49767 103-225) (ligand)”, the Kd (usually a measure of binding affinity in units of concentration) in experiment [1] came out at 0.135 nM.

B1: recombinant human VEGF165 (ligand)
chain: APMAEGGGQNHHEVVKFMDVYQRSYCHPIETLVDIFQEYPDEIEYIFKPSCVPLMRCGGCCNDEGLECVPTEESNITMQIMRIKPHQGQHIGEMSFLQHNKCECRPKKDRARQENPCGPCSERRKHLFVQDPQTCKCSCKNTDSRCKARQLELNERTCRCDKPRR
notes: Bought protein; also called recombinant human VEGF (R&D Systems)
Turning to B1, in experiment [2], the binding result was “no binding (tested: 50 ng/ml)”.

B2: 29 kD VEGF-C polypeptide (beginning with amino acid 228 of prepro-VEGF-C) (other)
chain: SLPATLPQCQAANKTCPTNYMWNNHICRCLAQEDFMFSSDAGDDSTDGFHDICGPNKELDEETCQCVCRAGLRPASCGPHKELDRNSCQCVCKNKLFPSQCGANREFDENTCQCVCKRTCPRNQPLNPGKCACECTESPQKCLLKGKKFHHQTCSCYRRPCTNRQKACEPGFSYSEEVCRCVPSYWKRPQMS
notes: C-terminal propeptide; also called 29 kD component; 29 kD form
For the molecule B2, the binding result in experiment [3] is given as “binds”.
